The values below come from PMC12005989, “Purification, identification, and in silico screening of a multifunctional octapeptide from semen armeniacae glutelin-2 hydrolysates: restraining mechanisms to Keap1 and ACE, stability, and ferrous-transport efficiency” (Frontiers in Nutrition, 2025).

Ends that are not written are not given here.

For this experiment, the target named is T1, angiotensin-I-converting enzyme (ACE) (Oryctolagus cuniculus, UniProt P12822).
T1 construct: Rabbit lungs ACE (0.1 U) was obtained from Sigma-Aldrich (St. Louis, MO, USA); purchased Sigma-Aldrich (St. Louis, MO, USA); host or cells: rabbit lung (tissue-derived)
T1 sequence (P12822 34-1310): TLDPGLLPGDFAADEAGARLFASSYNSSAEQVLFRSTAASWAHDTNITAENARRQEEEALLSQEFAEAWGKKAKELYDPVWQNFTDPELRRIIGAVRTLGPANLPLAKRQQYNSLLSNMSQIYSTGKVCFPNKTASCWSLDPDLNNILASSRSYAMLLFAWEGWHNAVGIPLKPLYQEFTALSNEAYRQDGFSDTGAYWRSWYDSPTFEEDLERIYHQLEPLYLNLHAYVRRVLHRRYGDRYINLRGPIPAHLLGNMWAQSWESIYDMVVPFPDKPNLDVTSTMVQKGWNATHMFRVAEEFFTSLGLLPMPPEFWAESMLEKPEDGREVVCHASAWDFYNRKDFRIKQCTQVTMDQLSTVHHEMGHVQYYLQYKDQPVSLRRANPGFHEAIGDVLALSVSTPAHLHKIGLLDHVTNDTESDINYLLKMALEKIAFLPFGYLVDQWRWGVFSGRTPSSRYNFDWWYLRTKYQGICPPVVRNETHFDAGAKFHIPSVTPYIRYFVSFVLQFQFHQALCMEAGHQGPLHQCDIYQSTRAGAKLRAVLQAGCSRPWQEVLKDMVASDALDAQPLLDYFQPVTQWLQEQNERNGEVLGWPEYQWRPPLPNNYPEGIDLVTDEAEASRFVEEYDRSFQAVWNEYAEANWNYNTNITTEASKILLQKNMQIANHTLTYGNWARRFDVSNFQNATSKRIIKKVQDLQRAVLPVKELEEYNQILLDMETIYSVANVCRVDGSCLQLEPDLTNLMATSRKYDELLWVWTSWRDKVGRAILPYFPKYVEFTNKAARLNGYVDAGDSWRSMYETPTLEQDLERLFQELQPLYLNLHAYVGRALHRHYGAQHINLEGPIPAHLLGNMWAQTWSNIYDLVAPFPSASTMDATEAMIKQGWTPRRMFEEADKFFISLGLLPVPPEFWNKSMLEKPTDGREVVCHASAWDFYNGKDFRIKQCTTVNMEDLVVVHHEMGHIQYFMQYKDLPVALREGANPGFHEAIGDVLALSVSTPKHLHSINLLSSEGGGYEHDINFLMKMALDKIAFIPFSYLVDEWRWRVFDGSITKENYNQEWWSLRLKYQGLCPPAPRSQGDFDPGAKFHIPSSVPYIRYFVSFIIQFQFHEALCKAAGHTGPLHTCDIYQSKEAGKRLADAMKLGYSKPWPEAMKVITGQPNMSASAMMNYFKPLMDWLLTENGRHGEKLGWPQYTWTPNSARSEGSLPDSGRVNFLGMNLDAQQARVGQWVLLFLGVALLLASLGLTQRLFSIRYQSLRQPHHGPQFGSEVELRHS
In words: ACE-inhibitory kinetics, Lineweaver–Burk plot. Type of experiment: biochemical, Rabbit. Particulars: inhibitor 0.011–0.055 mmol/L, HHL 0.13–1.32 mmol/L, Vmax not altered, Km increased. From the text: The hippuric acid method ([50]) was used to measure the samples’ restraining capacity against ACE citing the same procedures from Zheng et al. ([34]). The absorbance of the reaction solution at 228 nm was the hippuric acid content and was proportional to ACE activity; therefore, the restraining capacity of samples toward ACE was defined as the percentage reduction in the absorption at 228 nm between the control and sample groups. In addition, the ACE-inhibitory kinetic by BAG-2H peptides (0.011–0.055 mmol/L) was investigated employing Lineweaver–Burk plot ([36]).

Consider “PVDFAGFY-ferrous chelate: ferrous chelate of PVDFAGFY prepared with ferrous chloride (also: ferrous chelate)”, for which the ACE-inhibitory mode entry is “competitive ACE inhibitor”.
